# Non-standard residues stand in square brackets, D forms with d. No end group written: not given here. Trp(5-OH) = N[C@@H](Cc1c[nH]c2ccc(O)cc12)C(=O)O; Phe(4-NH2) = Nc1ccc(C[C@H](N)C(=O)O)cc1
# System: AS mouse model
# Experiment: AS mouse model / animal studies
# Type: in vivo
# Conditions: data to be reported elsewhere
row,Molecule,effect in AS mouse model / animal studies
1,CC(C)[C@H](NC(=O)[C@H](CCCNC(=N)N)NC(=O)[C@@H](NC(=O)[C@H](CCC(N)=O)NC(=O)[C@H](CCC(N)=O)NC(=O)[C@@H](NC(=O)[C@H](Cc1c[nH]c2ccccc12)NC(=O)[C@@H]1CCCN1C(=O)[C@@H]1CCCN1C(=O)[C@H](Cc1ccccc1)NC(=O)[C@H](CO)NC(=O)CNC(=O)[C@H](CS)NC(=O)[C@H](CS)NC(=O)[C@H](CCCNC(=N)N)NC(=O)[C@H](CCCNC(=N)N)NC(=O)[C@H](CCCNC(=N)N)NC(=O)[C@H](CCCNC(=N)N)NC(=O)[C@H](CCCNC(=N)N)NC(=O)[C@H](CCCNC(=N)N)NC(=O)[C@@H](N)CCCNC(=N)N)C(C)C)[C@@H](C)O)C(=O)O [SYNGAP],did not have the same beneficial effects as Syn3

# Target: PSD-95 PDZ3cα protein (residues R309-S422) (UniProt P78352 309-422)
# Sequence (P78352 309-422): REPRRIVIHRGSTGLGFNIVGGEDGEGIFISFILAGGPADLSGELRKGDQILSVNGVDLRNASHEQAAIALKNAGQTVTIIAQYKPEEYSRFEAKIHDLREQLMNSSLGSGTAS
# Experiment: SPR
# Conditions: not given
Molecule,koff [s⁻¹],kon [M⁻¹ s⁻¹]
RRRRRRGS[Phe(4-NH2)]PPWVQQTRV [SYNGAP peptide F4-NH2F],0.0104,153000
GSFPPWVQ [aC binder peptide],0.00592,1000
RRRRRRGSFPPW[dV]QQTRV [SYNGAP peptide D-Val8],0.0459,2.19e+06
RRRRRRGSFP[dP]WVQQTRV [SYNGAP peptide D-Pro5],0.0444,1.83e+06
RRRRRRGSFPP[Trp(5-OH)]VQQTRV [SYNGAP peptide W7-OHW],0.0106,24000
RRRRRRG[dS]FPPWVQQTRV [SYNGAP peptide D-Ser3],0.00493,633000
RRRRRRGSFPPWV[dQ]QTRV [SYNGAP peptide D-Gln9],0.0182,317000
"D-Syn3 (cysteine pairing not given here; also: D- prefix in name, meaning not given here) chain 1: RRRRRRRC chain 2: CGSFPPWVQKTEV",0.0125,458000
RRRRRRGSF[dP]PWVQQTRV [SYNGAP peptide D-Pro4],0.0116,1.88e+06
CN2097 (peptide) chain 1: RRRRRRRC chain 2: CKNYKKTEV,0.00109,6000
CGSFPPWVKKTEV (not fully specified) [Syn3*],0.0287,439000

# Target: T1, PSD-95 PDZ3cα (residues R309-S422) (Homo sapiens, UniProt P78352)
# T1 sequence (P78352 309-422): as above
# Experiment: SPR binding of peptides to immobilized PDZ3cα
# Conditions: not given
row,Molecule,Kd [nM]
1,RRRRRRGSFPPWLQQTRV [V8L],58.4
2,CC(C)[C@H](NC(=O)[C@H](CCCNC(=N)N)NC(=O)[C@@H](NC(=O)[C@H](CCC(N)=O)NC(=O)[C@H](CCC(N)=O)NC(=O)[C@@H](NC(=O)[C@H](Cc1c[nH]c2ccccc12)NC(=O)[C@H]1CCCN1C(=O)[C@@H]1CCCN1C(=O)[C@H](Cc1ccccc1)NC(=O)[C@H](CO)NC(=O)CNC(=O)[C@H](CCCNC(=N)N)NC(=O)[C@H](CCCNC(=N)N)NC(=O)[C@H](CCCNC(=N)N)NC(=O)[C@H](CCCNC(=N)N)NC(=O)[C@H](CCCNC(=N)N)NC(=O)[C@@H](N)CCCNC(=N)N)C(C)C)[C@@H](C)O)C(=O)O [D-Pro5],24.3
3,CC(C)[C@H](NC(=O)[C@H](CCCNC(=N)N)NC(=O)[C@@H](NC(=O)[C@H](CCC(N)=O)NC(=O)[C@@H](CCC(N)=O)NC(=O)[C@@H](NC(=O)[C@H](Cc1c[nH]c2ccccc12)NC(=O)[C@@H]1CCCN1C(=O)[C@@H]1CCCN1C(=O)[C@H](Cc1ccccc1)NC(=O)[C@H](CO)NC(=O)CNC(=O)[C@H](CCCNC(=N)N)NC(=O)[C@H](CCCNC(=N)N)NC(=O)[C@H](CCCNC(=N)N)NC(=O)[C@H](CCCNC(=N)N)NC(=O)[C@H](CCCNC(=N)N)NC(=O)[C@@H](N)CCCNC(=N)N)C(C)C)[C@@H](C)O)C(=O)O [D-Gln9],57.3
4,RRRRRRGSFPPWIQQTRV [V8I],101
5,CC(C)[C@H](NC(=O)[C@H](CCCNC(=N)N)NC(=O)[C@@H](NC(=O)[C@H](CCC(N)=O)NC(=O)[C@H](CCC(N)=O)NC(=O)[C@@H](NC(=O)[C@H](Cc1c[nH]c2ccccc12)NC(=O)[C@@H]1CCCN1C(=O)[C@@H]1CCCN1C(=O)[C@H](Cc1ccccc1)NC(=O)[C@@H](CO)NC(=O)CNC(=O)[C@H](CCCNC(=N)N)NC(=O)[C@H](CCCNC(=N)N)NC(=O)[C@H](CCCNC(=N)N)NC(=O)[C@H](CCCNC(=N)N)NC(=O)[C@H](CCCNC(=N)N)NC(=O)[C@@H](N)CCCNC(=N)N)C(C)C)[C@@H](C)O)C(=O)O [D-Ser3],7.8
6,RRRRRRGSHPPWVQQTRV [F4H],121
7,CC(C)[C@H](NC(=O)[C@H](CCCNC(=N)N)NC(=O)[C@@H](NC(=O)[C@H](CCC(N)=O)NC(=O)[C@H](CCC(N)=O)NC(=O)[C@@H](NC(=O)[C@H](Cc1c[nH]c2ccccc12)NC(=O)[C@@H]1CCCN1C(=O)[C@H]1CCCN1C(=O)[C@H](Cc1ccccc1)NC(=O)[C@H](CO)NC(=O)CNC(=O)[C@H](CCCNC(=N)N)NC(=O)[C@H](CCCNC(=N)N)NC(=O)[C@H](CCCNC(=N)N)NC(=O)[C@H](CCCNC(=N)N)NC(=O)[C@H](CCCNC(=N)N)NC(=O)[C@@H](N)CCCNC(=N)N)C(C)C)[C@@H](C)O)C(=O)O [D-Pro4],6.1
8,CC(C)[C@H](NC(=O)[C@H](CCCNC(=N)N)NC(=O)[C@@H](NC(=O)[C@H](CCC(N)=O)NC(=O)[C@H](CCC(N)=O)NC(=O)[C@H](NC(=O)[C@H](Cc1c[nH]c2ccccc12)NC(=O)[C@@H]1CCCN1C(=O)[C@@H]1CCCN1C(=O)[C@H](Cc1ccccc1)NC(=O)[C@H](CO)NC(=O)CNC(=O)[C@H](CCCNC(=N)N)NC(=O)[C@H](CCCNC(=N)N)NC(=O)[C@H](CCCNC(=N)N)NC(=O)[C@H](CCCNC(=N)N)NC(=O)[C@H](CCCNC(=N)N)NC(=O)[C@@H](N)CCCNC(=N)N)C(C)C)[C@@H](C)O)C(=O)O [D-Val8],20.9
9,"GSFPPWVQ [aC binder, reference compound]",11100

# Target: T1, PSD-95 PDZ3cα (residues R309-S422)
# Experiment: SPR
# Conditions: not given
Molecule,koff [s⁻¹],kon [M⁻¹ s⁻¹]
SYNGAP peptide F4H,0.0261,216000
SYNGAP peptide V8L,0.00381,–
SYNGAP peptide V8I,0.00294,–
